This series is described as follows: yeast display, Sf9 membrane polyspecificity reagent, FACS + sequencing; frameworks hold sequencing errors. The procedure, abridged:
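A synthetic nanobody library was expressed on Saccharomyces cerevisiae BJ5465 by galactose induction for 36–48 hours. The library was stained for 1 hour at 4 °C with 10% biotinylated, detergent-solubilized Sf9 membrane reagent and enriched with streptavidin microbeads before FACS. Low and high (top ~1%) gates were set on anti-HA fluorescence for expression and streptavidin fluorescence for reagent binding, and each polyreactivity label reflects the gate of origin.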
Take “QVQHVESGGGLVQAGGSLRLSCAASGSTFAYNDMGRYRQAPGKERELVADIRSGGNTNYADSVKGRFTISRDNAKNTVYLQMNSLKPEDTAVYYCATDGYRIDVYHPDYRYDYWGQGTQVTVSS”: the “polyreactivity (PSR sort gate)” value is given as “low polyreactivity”. The entry for “QVQHVESGGGLVQAGGSLRLSCAASGSTFGLYAMGWYRQAPGKERELVAAISRRGGSTYYADSVKGRLTISRDNAKNTVYLQMNSLRPVETAVYDCAAVTAYRFDTLGMDYWGQGTQVTVSS” is “high polyreactivity”; for “QVQHVESGGGLVQAGGSLRLSCAASGSTFRYYAMGWYRQAPGKERELVAAITSSGTSTYYADSVKGRFTISRDNAKNTVYLQMNSLKPEDTAVYSCAAPPVYKWVSSRYDYWGQGTQVTVSS” it is “low polyreactivity”. As to “QVQHVESGGGLVQAGGSLRLSCAASGSTFTTNAMGWYRQAPGKERELVAAITASGGRTYYADSVKGRFTISRDNAKNTVYLQMNSLKPEDTAVYYCAADSGNEYDYWGQGTQVTVSS”, the “polyreactivity (PSR sort gate)” value is “low polyreactivity”. The entry for “QVQHVESGGGLVQAGGSLRLSCAASGSTFWYNAMGWYRQAPGKERELVAAISYSGGRTYYADSVKGRFTISRDNAKNTVYLQMNSLKPEDTAVYYCNADSRYGGDYWGQGTQVTVSS” is “low polyreactivity”. As to “QVQHVESGGGLVQAGGSLRLSCAASGSTFYRYTMGWYRQPPGKEREFVATITGRGGSTYADSVKGRFTISRDNAKNTVYLQMNSLKPEDTAVYYCAKRQTYREYDYWGQGTQVTVSS”, the “polyreactivity (PSR sort gate)” value is given as “low polyreactivity”. In the case of “QVQHVESGGGLVQAGGSLRLSCAASGSTIRNYAMGWYRQAHGKERELVAAISSGGRTYYADSVKGRFTISRDNAKNPVYLQMTSLKPEDTAVYYCAARVYYWSFAGILYTPTGGYWGQGTQVTVSS” it was “high polyreactivity”.

On to “QVQHVESGGGLVQAGGSLRLSCAASGSTQTRNPMGWYRKAPGKERELVAAITQRGGSTYYADSVKGRFTISRDNAKNTVYLQMNSLKPEDTAVYYCAKVPSVKYRSIWVLPEYGWGQGTQVTVSS”, for which the “polyreactivity (PSR sort gate)” value is “low polyreactivity”. As to “QVQHVESGGGLVQAGGSLRLSCAASGTIFTVYAMGWYRQAPGKERELVAAITRNGGRTYYADSVKGRFTISRDNAKNTVYLQMNSLKPEDTAVYFCAAPGLYSRLDYWGQGTQVTVSS”, the “polyreactivity (PSR sort gate)” value is listed as “high polyreactivity”. The entry for “QVQHVESGGGLVQAGGSLRLSCAASGYIFSRYRGWYRQAPGTERELVAAITRGGVSTYYADSVKGRFTISRDNAKNTVYLQMNSLKPEDTAVYYCATGRPVYYVASYDYDYWGQGTQVTVSS” is “low polyreactivity”; for “QVQHVESGGGLVQAGGSLRLSCAASGYIFYTYAMGWYRQAPGKERELVAGINRGDSTNYADSVKGRFTISRDNAKNTVYLQMNSLKPEDTAVYYCNARQRTYYRTHRIRHKGNGYWGQGTQVTVSS” it is “low polyreactivity”; for “QVQHVESGGGLVQAGGSLRLSCAASGYTFGYYAMGWYRQAPGKERELVASITERGGSTYYADSVKGRFTISRDNAKNTVYLQMNSLKPEDTAVYYCAADWDPSWWLFPTSSYDYWGQGTQVTVSS” it is “low polyreactivity”. As for “QVQHVESGGGLVQAGGSLRLSCAASGYTFYIYPMGWYRQAPGKERELVATISSSGGGTYYADSVKGRFTISRDNAKNTVYLQMNSLKPEETAVYYCAADSWRYVAEGLWREYDYWGQRTQVTVSS”, the “polyreactivity (PSR sort gate)” value is given as “low polyreactivity”. In the case of “QVQHVESGGGLVQAGGSLRLSCAASGYTYDPNAMGWYRQAPGKERELVAAISRIGGSTYYADSVKGRFRISRDNAKNTVYLQMNSLKREDTAVYYCAQEYYDGYFPTFDYDYWGQGTQVTVSS” it was “low polyreactivity”; in that of “QVQHVESGGGLVQAGGSLRLSCAASVRTFYTYAMGRDRQAPGKERELVAAISLSGTRTYYADSVKGRFTISRDNAKNTVYLQMNSLNPEDTAVYYCAADRFNKPYYYWGQGTQVTVSS”, “high polyreactivity”. For “QVQHVESGGGLVQAGGSLRLSCAASVSTFEYYAIGRYRQAPGKERELVASISSGGSTYYADSVKGRFTISRDNAKNTVYLQMNSLKPEDTAVYYCAADSYYGYEYWGQGTQVTVSS”, the “polyreactivity (PSR sort gate)” value was “low polyreactivity”. Regarding “QVQHVESGGGLVQAGGSLRLSCASSGFILEPYGMGWYRPAPGKERELVAAITSGASTYYADSVKGRFTISRDNAMNTVYLQMNILKPEDTAVYYCAVDPYSTYSEYDSWGQGTQVTVSS”, the “polyreactivity (PSR sort gate)” value was “low polyreactivity”.

Turning to “QVQHVESGGGLVQAGGSLRLSCASSGITFPDYSMGWYRQAPGKERELVAGISSTGDSTYYADSVKGRFTISRDNGKKTVYLQMNSLKPEDTAVYYCNAAQERPIIILFSKYDYWGQGTQVTVSS”, the “polyreactivity (PSR sort gate)” value is given as “low polyreactivity”.

For “QVQHVESGGGLVQAGGSLRLSCASSGSTFWFYAMGWYRQAPGKERELVATINWYGGTTNYADSVKGRFTISRDNAKNSVYLQMYSLKPEDTADYYGAGYQALTYGSYEYWGQGSQVTVSS”, the “polyreactivity (PSR sort gate)” value is “low polyreactivity”. In the case of “QVQHVESGGGLVQAGGSLRLSCAVSGRTFYYYAMGWYRQAPGKERELVAAISSSGGSTYYADSVKGRFTISRDNAKNTVYLQMNSLKPEDTAVYYCAAAARKVSVSRYLYYYWGQGTQVTVSS” it was “high polyreactivity”; in that of “QVQHVESGGGLVQAGGSLRLSCDASGRIFLYKAMGWYRQAPGKERELVAAIDGGGTTYADSVKGRFTISRDNAKNTVYLQRNSLKPEDTAVYYCAADWYYQYSIYRYGYWGQGTQVTVSS”, “low polyreactivity”. In the case of “QVQHVESGGGLVQAGGSLRLSCPASGSIFARYAMGWYRQAPGKERELVAAITSGGITNYADSVMGRFTISRDNAKNTVYLQMISLNPEDTAVYYCAARRSGRVRYDYWGQGTQVTVSS” it was “high polyreactivity”; in that of “QVQHVESGGGLVQAGGSLRLSCPASGSTLYGYAMGWYRQEPGKESELVAAINTGASTNYADSVKGRFTISRDNAKNTVYLQMNSLKPEDTAVYYCAASYSLTFWDKDDYWGQGTQVTVSS”, “low polyreactivity”. Regarding “QVQHVESGGGLVQAGGSLRLSSAASGRIFKRNALGWYRQAPGKEREMVATISGSGGSTYYADSVKGRFTISRDNAKNTVYLQMNSLNPEDTAVYYCAAGYKSYWRLSSPKMDYWGQGTQVTVSS”, the “polyreactivity (PSR sort gate)” value is recorded as “high polyreactivity”.

Turning to “QVQHVESGGGLVQAGGSLRLSSAASGRTFYYNAMGWYRQAPGKERELVASITITDSTNYADSVKGRFTISRDNAKNTVYLQMNSLKPEDTAVYYCAKRGWGTSFYLSDYWGQGTQVTVSS”, the “polyreactivity (PSR sort gate)” value is reported as “low polyreactivity”. The entry for “QVQHVESGGGLVQAGGSLRLTCAATGRIFYTNTMGWYRQAPGKEREFVAAISWRGGSTYYADSVKGRFTISRDNAKNTVYLQMNSLKPEDTAVYYCAKTRTYFLSRYVSWGQGTQVTVSS” is “high polyreactivity”; for “QVQHVESGGGLVQAGGSLSLICAASGSIFCYYAMGWYRKAPGKERELVAAIDSGGSTYYADSVKGRFTISRDNAKNTVYLQMNILKPEDTAVYYCAAGVSSFSPYDSWGQGTQVTVSS” it is “low polyreactivity”; for “QVQHVESGGGLVQAGGSLSLSCAASGSTFKHYAMGWYRQAPGKERELVAAISSRGGSTHYADSVKGRFRISRDNAKNTVYLQMNSLKPEDTAVYYCARDTDPQSSRSSDYDYWGQGTQVTVSS” it is “low polyreactivity”. The entry for “QVQHVESGGGLVQAGGSLSLSCADSGFIFRYYAMGWYRQAPGKERELDAAISWSGGSTYYADSVKGRFTISRDNSKNTVYLQMNSLKPEDTAVYYCAADRYAILFYAEDYWGQGSQVTVSS” is “low polyreactivity”; for “QVQHVESGGGLVQAGGSQRLSCAASGSIFDYYAMGWYRQAPGKERELVAAISTSTSSTYYADSVKGRFTISRDNAKNTVYLQLNSLKPEDTAVYYCAAVGESQPEYPGYDYWGQGTQVTVSS” it is “low polyreactivity”.

(Values after the nanobody polyreactivity screen of Harvey et al. (2022).)
